Reference: PMC9553925

Columns and labels:
[1] = biological target: ATP synthase subunit-c (T. brucei) (T. brucei (endogenous in procyclic Lister strain 427)); assay: cryo-EM structure; ATP synthase dimers purified from T. brucei procyclic mitochondria in GDN with added β-DDM and phospholipids, pH 8.0; consensus dimer 3.2 Å, membrane region 2.7 Å, peripheral stalk 3.7 Å, rotor 3.7 Å, ten rotational substates 3.5–4.3 Å
[2] = biological target: Trypanosoma brucei mitochondrial F1Fo ATP synthase (monomer unit of the dimer) (T. brucei (endogenous in procyclic Lister strain 427)) (UniProt P24499); assay: as above

| stoichiometry N [1] | stoichiometry N [2] | Substance |
| --- | --- | --- |
| 10 | – | ATP synthase subunit-c (T. brucei) (natural protein) |
| – | 2 | Trypanosoma brucei mitochondrial F1Fo ATP synthase (monomer unit of the dimer) (from UniProt P24499 1-229) (complex) |
